Square brackets hold non-standard residues; d marks the D form. Ends that are not written are not given here. Dmt = Cc1cc(O)cc(C)c1C[C@H](N)C(=O)O
B1: CM-58 (peptide)
peptide: [Dmt]PWFQFQFK-NH2
modifications: N-terminus assumed
SMILES: Cc1cc(O)cc(C)c1C[C@H](N)C(=O)N1CCC[C@H]1C(=O)N[C@@H](Cc1c[nH]c2ccccc12)C(=O)N[C@@H](Cc1ccccc1)C(=O)N[C@@H](CCC(N)=O)C(=O)N[C@@H](Cc1ccccc1)C(=O)N[C@@H](CCC(N)=O)C(=O)N[C@@H](Cc1ccccc1)C(=O)N[C@@H](CCCCN)C(N)=O
B2: CM-56 (peptide)
peptide: [Dmt]PFFQFQFK-NH2
modifications: N-terminus assumed
SMILES: Cc1cc(O)cc(C)c1C[C@H](N)C(=O)N1CCC[C@H]1C(=O)N[C@@H](Cc1ccccc1)C(=O)N[C@@H](Cc1ccccc1)C(=O)N[C@@H](CCC(N)=O)C(=O)N[C@@H](Cc1ccccc1)C(=O)N[C@@H](CCC(N)=O)C(=O)N[C@@H](Cc1ccccc1)C(=O)N[C@@H](CCCCN)C(N)=O

How the values were obtained:
Test in all cases: binding test (Ki), method not described
DOR = target: DOR
KOR = target: KOR
MOR = target: MOR
MOR, sequence (P35372 whole entry): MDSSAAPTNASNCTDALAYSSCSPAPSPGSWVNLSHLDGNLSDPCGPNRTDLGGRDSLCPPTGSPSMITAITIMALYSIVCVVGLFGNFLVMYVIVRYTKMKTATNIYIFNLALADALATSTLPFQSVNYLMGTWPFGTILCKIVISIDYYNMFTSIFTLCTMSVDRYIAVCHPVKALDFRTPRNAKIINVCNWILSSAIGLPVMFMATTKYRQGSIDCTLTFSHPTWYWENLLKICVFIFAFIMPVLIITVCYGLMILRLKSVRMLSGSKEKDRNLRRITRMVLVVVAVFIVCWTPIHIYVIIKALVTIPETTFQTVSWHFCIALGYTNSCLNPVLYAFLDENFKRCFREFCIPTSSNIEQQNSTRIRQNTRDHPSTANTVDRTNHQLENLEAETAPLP

Binder | Ki (DOR) [nM] | Ki (KOR) [nM] | Ki (MOR) [nM]
B1 | 15 | 120 | 7.5
B2 | 176 | 337 | 65
